The source of these data is publication PMC7583764.

This experiment addresses recombinant human PGRN (human) (UniProt P28799).
UniProt P28799, sequence (P28799 18-593): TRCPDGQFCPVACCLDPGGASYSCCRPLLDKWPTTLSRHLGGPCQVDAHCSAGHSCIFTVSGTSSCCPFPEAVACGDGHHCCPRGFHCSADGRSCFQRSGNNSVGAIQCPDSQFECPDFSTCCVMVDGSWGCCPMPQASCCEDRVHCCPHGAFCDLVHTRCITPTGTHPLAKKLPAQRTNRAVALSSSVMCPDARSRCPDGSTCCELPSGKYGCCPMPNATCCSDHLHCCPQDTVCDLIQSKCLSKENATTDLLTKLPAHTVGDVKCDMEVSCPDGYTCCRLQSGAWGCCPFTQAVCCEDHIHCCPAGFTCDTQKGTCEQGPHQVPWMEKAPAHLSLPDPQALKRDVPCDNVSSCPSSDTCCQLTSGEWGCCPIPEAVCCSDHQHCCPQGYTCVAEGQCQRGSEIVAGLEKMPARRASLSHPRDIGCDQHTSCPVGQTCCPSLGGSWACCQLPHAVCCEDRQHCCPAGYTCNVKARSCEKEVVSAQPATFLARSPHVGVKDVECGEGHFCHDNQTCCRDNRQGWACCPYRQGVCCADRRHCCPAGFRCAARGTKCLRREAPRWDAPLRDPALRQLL

Regarding “recombinant human Flag-YB-1 (from UniProt P67809 1-324) (natural protein)”, the inhibition of TNF-induced NF-κB luciferase reporter activity in transfected human embryonic kidney cells by combined stimulation with YB-1 and PGRN came out at 65%.
